These results are taken from the nanobody polyreactivity screen of Harvey et al. (2022).

A short description of the series: yeast display, Sf9 membrane polyspecificity reagent, FACS + sequencing; frameworks hold sequencing errors. The gist of the method:
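Galactose induction of a Saccharomyces cerevisiae BJ5465 synthetic nanobody display library ran 36–48 hours. The cells were then stained for 1 hour at 4 °C with 10% biotinylated, detergent-solubilized Sf9 membrane reagent, pulled down on streptavidin microbeads and FACS-sorted into low and high (top ~1%) gates on expression and reagent-binding fluorescence. Labels for polyreactivity follow the gate of origin.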
Regarding “QVQLVESGGGLVQAGGSLRLSCAASGSIFFLYAMGWYRQAPGKERELVAAISGGGGSTYYADSVKGRFTISRDNAKNTVYLQMNSLKPEDTAVYYCDALSKTRGGYWGQGTQVTVSS”, the “polyreactivity (PSR sort gate)” value is on record as “high polyreactivity”. The same measure for “QVQLVESGGGLVQAGGSLRLSCAASGSIFFNNAMGWYRQAPGKERELVAAITTGGSTYYADSVKGRFTISRDNAKNTVYLQMNSLKPEDTAVYYCAAVVVYPYRLGYDYWGQGTQVTVSS”: “low polyreactivity”; for “QVQLVESGGGLVQAGGSLRLSCAASGSIFFNTMGWYIQAPGKERELVAAISRSGGSTYYADSVKGRFTISRDNAKNTVYLQMNSLKPEDTAVYYCNALRWSQYTYSSRLGHFDSWGQGTQVTVSS”: “high polyreactivity”; for “QVQLVESGGGLVQAGGSLRLSCAASGSIFFNTMGWYRQAPGKERELVAAISRSGGSTYYADSVKGRFTISRDNAKNTVYLQMNSLKPEDTAVYYCNALRWSQYTYSSRLGHFDSWGQGTQVTVSS”: “high polyreactivity”. The same measure for “QVQLVESGGGLVQAGGSLRLSCAASGSIFFPYAMGWYRQAPGKERELVARISWGAGRTYYADSVKGRFTISRDNAKNTVYLQMNSLKPEDTAVYYCAARDRTRYAGYNYWGQGTQVTVSS”: “high polyreactivity”; for “QVQLVESGGGLVQAGGSLRLSCAASGSIFFPYVMGWYRQAPGKERELVAAIRRGGGSTYYADSVKGRFTISRDNAKNTVYLQMNSLKPEDTAVYYCAAKGWYVQHFKRGLYNYWGQGTQVTVSS”: “high polyreactivity”. The same measure for “QVQLVESGGGLVQAGGSLRLSCAASGSIFFQNGMGWYRQAPGKERELVAAISSSGDSTYYADSVKGRFTISRDYAKNTVYLQMNSLKPEDTAVYYCAAEPEYVSGPYDYWGQGTQVTVSS”: “low polyreactivity”. With “QVQLVESGGGLVQAGGSLRLSCAASGSIFFQYGMGWYRQAPGKEREFVAAISVSGGSTYYADSVKGRFTISRDNAKNTVYLQMNSLKPEDTAVYYCAAEFRGDTTSLVYASSYDYWGQGTQVTVSS”, the “polyreactivity (PSR sort gate)” value is reported as “low polyreactivity”. As for “QVQLVESGGGLVQAGGSLRLSCAASGSIFFRNAMGWYRQAPGKEREFVAVINYSGGSTRYADSVKGRFTISRDNAKNTVYLQMNSLKPEDTAVYYCATRLYISKMYYWGQGTQVTVSS”, the entry is “high polyreactivity”; as for “QVQLVESGGGLVQAGGSLRLSCAASGSIFFSNDMGWYRQAPGKERELVASITRDGTSTYADSVKGRFTISRDNAKNTVYLQMNSLKPEETAVYYCAADRYLQGFYGRWHGYDSWGQGTQVTVSS”, “low polyreactivity”. As for “QVQLVESGGGLVQAGGSLRLSCAASGSIFFWYTMGWYRQAPGKERELVATITGSGSSTTYADSVKGRFTISRDNAKNTVYFQMNSLKPEDTAVYYCAAADIIDHSFPYDYWGQGTQVTVSS”, the entry is “low polyreactivity”; as for “QVQLVESGGGLVQAGGSLRLSCAASGSIFFWYTMGWYRQAPGKERELVATITGSGSSTTYADSVKGRFTISRDNAKNTVYLQMNSLKPEDTAVYYCAAADIIDHSFPYDYWGQGTQVTVSS”, “low polyreactivity”; as for “QVQLVESGGGLVQAGGSLRLSCAASGSIFFYAMGWYRQAPGKERELVADITYTGGSKYADSEKGRFTISRDNAKNTVYLQMNSLKPEETAVYSGATLDGGLFDDWGQGTQVTVSS”, “low polyreactivity”. “QVQLVESGGGLVQAGGSLRLSCAASGSIFFYNVMGWYRQAPGKERELVAAITRSGGRTYYADSVKGRFTISRDNAKNNVYLQMNSLKPEDTAVYYCAAALGGKFDYWGQGTQVTVSS”: the “polyreactivity (PSR sort gate)” value was “high polyreactivity”. Take “QVQLVESGGGLVQAGGSLRLSCAASGSIFFYYAMGWYRQAPGKERELVAAINWSGVNTYYADSVKGRFTISRDNAKNTVYLQMNSLKPEDTAVYYCNAVVSLTSYGYLGYRFDYWGQGTQVTVSS”: the “polyreactivity (PSR sort gate)” value was “low polyreactivity”. The same measure for “QVQLVESGGGLVQAGGSLRLSCAASGSIFFYYAMGWYRQAPGKERELVASISTDGSTYADSVKGRFTISRDNAKNTVYLQMNSLKPEDTAVYYCATRGAEAERFASYDFDYWGQGTQVTVSS”: “low polyreactivity”.
